Experimental findings from patent US20240279318A1 (published 2024) are described below.

One assay has as its target AFP158 loaded T2 cells (human;, UniProt P61769 21-119). The experiment in a line: flow cytometry. (In general: Flow cytometry measures light scatter and fluorescence of single cells or particles in a stream.)
Assay [1] deals with AFP158/HLA-A*02:01 complex. Put plainly: SPR. Background: SPR reads the build-up and loss of mass on a sensor chip optically.
Assay [2] deals with AFP158/HLA-A*02:01 complex. Put plainly: SPR. This is another data set of the same source.
Another assay has as its target A*02:05. The experiment in a line: SPR; low fitting confidence.
The next assay concerns the target A*02:03. Put plainly: SPR; low fitting confidence.
The target in a further assay is A*02:02. The experiment in a line: SPR; low fitting confidence.
A further assay deals with A*02:07. The experiment in a line: SPR; low fitting confidence.
Another assay deals with A*02:06. The experiment in a line: SPR.
The target of another assay is A*02:11. The experiment in a line: SPR.

Residue numbers refer to the chain shown, from its start. Like-named read-outs stand apart in the source and are kept apart here. Some results are limits rather than exact numbers.

B1: AS179732 scFv-mIgG2aFc (Fc fusion)
chain: NFMLTQPPSMSGSPRQSVTISCTGSSSNIGGNYVNWYQHLPGTAPKLLIYDNSNRASGVPERFSGSKSGSSASLTITGLQAEDEGDYYCASWDDSLSGAVFGGGTHLTVLGGGGSGGGGSGGGGSEVQLVESGGGLVQPGGSLRLSCAASGFTFLNYAMSWVRQAPGKGLEWVSSNSGAGSTYYSDSVKGRFTISRDYAKNVVYLQLNSLKTEDTGMYYCAKGTNVGSWSSLHYWGQGTQVTVSS
In the assay with AFP158 loaded T2 cells, B1 gave an EC50 of 1.15 nM. Also, the affinity in [1], expressed as Kd, was 39.8 nM.

B2: AS179723 scFv-mIgG2aFc (Fc fusion)
chain: B1 chain with N1Q, F2A, M3G, S27N, S53K, A56P, R62Q, F63I, G98A, A99V
Take B2: in the assay with AFP158 loaded T2 cells, the midpoint of the response, the EC50, lay at 1.48 nM. In assay [1], this molecule yielded a Kd of 80.4 nM.

B3: AS170036 scFv-mIgG2aFc (Fc fusion)
chain: QLVLTQPSSVSGTPGQTVTISCAGTSSDVGSENYVSWYRQLPGTAPKLLIYQVNKRASGIADRFSGSKSGNTASMTISGLQSADEADYYCASYRSSDHNIVFGGGTHLTVLGGGGSGGGGSGGGGSAVQLVESGGGLVQPGGSLRLSCTASGFTFSSYAMSWVRQAPGKGLEWVSTINSGTGSPYYADSVKGRFTISRDNAKNTLYLQLNSLKTEDTAMYYCAKNFFDGSWFLGPPAMDYWGKGTLVTISS
Take B3: in the assay with AFP158 loaded T2 cells, the EC50 came to 4.35 nM. The molecule further came in with a Kd in assay [1] of 387 nM.

B4: AS148691 scFv-mIgG2aFc (Fc fusion)
chain: DIQMTQSPSSLSASVGDRVTITCRASQSVSSAVAWYQQKPGKAPKLLIYSASSLYSGVPSRFSGSRSGTDFTLTISSLQPEDFATYYCQQYYGAYLITFGQGTKVEIKGGGGSGGGGSGGGGSEVQLVESGGGLVQPGGSLRLSCAASGFNLYYSSIHWVRQAPGKGLEWVASIYSSYGSTSYADSVKGRFTISADTSKNTAYLQMNSLRAEDTAVYYCARVGPGYYGIDYWGQGTLVTVSS
Molecule B4 returned an EC50 in the assay with AFP158 loaded T2 cells of 413 nM.

B5: AS167830 sdAb-mIgG2aFc (Fc fusion)
chain: QVKLVESGGGSVQAGGSLRLSCAASRSSEYMNRRFCMGWFRQASGKEREGVAVVYIGGGRTYYADSVKGRFTISQDNAKNTLYLQMNNLKPEDTAMYYCTADVDPYESSWSRDLGYWGQGTQVTVSS
In the assay with AFP158 loaded T2 cells, B5 gave an EC50 of 6.14 nM.

B6: AS170036 VL1VH1-57M98Q (scFv)
scFv: QSALTQPRSVSGSPGQSVTISCAGTSSDVGSENYVSWYQQHPGKAPKLMIYQVNKRASGVPDRFSGSKSGNTASLTISGLQAEDEADYYCASYRSSDQNIVFGGGTKLTVLGGGGSGGGGSGGGGSEVQLVESGGGLVQPGGSLRLSCAASGFTFSSYAMSWVRQAPGKGLEWVSTINSGTGMPYYADSVKGRFTISRDNSKNTLYLQMNSLRAEDTAVYYCAKNFFDGSWFLGPPAMDYWGQGTLVTVSSHHHHHH
As to B6, the Kd is 46 nM in [2]; more than 910 nM with A*02:05; more than 43000 nM with A*02:03; more than 910 nM with A*02:02; more than 19000 nM with A*02:07; 570 nM in the assay with A*02:06. In addition, in the assay with A*02:11, the Kd was 360 nM.

B7: AS170036 VL1VH1 (scFv)
scFv: B6 scFv with Q98H, M183S
Regarding B7, the Kd in assay [2] was 710 nM; in the assay with A*02:03 it was more than 2800 nM; in the assay with A*02:02 it was more than 1500 nM; with A*02:07, more than 18000 nM; with A*02:06 it was 5100 nM; in the assay with A*02:11, 220 nM.

B8: AS167821 sdAb-mIgG2aFc (Fc fusion)
chain: QVRLVESGGGSVQAGGSLRLSCAASGRTYSTYCMGWFRQAPGKEREGVATIYIGSGRTYYVDSVKGRFTISQDNAKNTLYLQMNNLKPEDTAMYYCTADVDPYESSWSRGLGYWGQGTQVTVSS
As to B8, the response in the assay with AFP158 loaded T2 cells was half-maximal at 3.63 nM (EC50).

What is called EC50 is the concentration at which the effect is half-maximal. Broadly, the Kd is the free concentration of one partner at which half of the binding sites on the other are occupied at equilibrium, for simple one-to-one binding. High values mean weaker binding, low ones tighter binding.
